From publication PMC12033333 (Nature Communications, 2025)

B1: SBP-fused phyB^PSM (domain or fragment)
chain: MVSGVGGSGGGRGGGRGGEEEPSSSHTPNNRRGGEQAQSSGTKSLRPRSNTESMSKAIQQYTVDARLHAVFEQSGESGKSFDYSQSLKTTTYGSSVPEQQITAYLSRIQRGGYIQPFGCMIAVDESSFRIIGYSENAREMLGIMPQSVPTLEKPEILAMGTDVRSLFTSSSSILLERAFVAREITLLNPVWIHSKNTGKPFYAILHRIDVGVVIDLEPARTEDPALSIAGAVQSQKLAVRAISQLQALPGGDIKLLCDTVVESVRDLTGYDRVMVYKFHEDEHGEVVAESKRDDLEPYIGLHYPATDIPQASRFLFKQNRVRMIVDCNATPVLVVQDDRLTQSMCLVGSTLRAPHGCHSQYMANMGSIASLAMAVIINGNEDDGSNVASGRSSMRLWGLVVCHHTSSRCIPFPLRYACEFLMQAFGLQLNMELQLALQMSEKRVLRTQTLLCDMLLRDSPAGIVTQSPSIMDLVKCDGAAFLYHGKYYPLGVAPSEVQIKDVVEWLLANHADSTGLSTDSLGDAGYPGAAALGDAVCGMAVAYITKRDFLFWFRSHTAKEIKWGGAKHHPEDKDDGQRMHPRSSFQAFLEVVKSRSQPWETAEMDAIHSLQLILRDSFKESEAAMNSKVVDGVVQPCRDMAGEQGIDELGAV
modifications: chromophore-bound (phycocyanobilin, PCB)
B2: GST-fused APB (PIF3 1-113 a.a.) (domain or fragment)
chain: MPLFELFRLTKAKLESAQDRNPSPPVDEVVELVWENGQISTQSQSSRSRNIPPPQANSSRAREIGNGSKTTMVDEIPMSVPSLMTGLSQDDDFVPWLNHHPSLDGYCSDFLRD
B3: GST-tagged PIF1 (natural protein)
chain: MHHFVPDFDTDDDYVNNHNSSLNHLPRKSITTMGEDDDLMELLWQNGQVVVQNQRLHTKKPSSSPPKLLPSMDPQQQPSSDQNLFIQEDEMTSWLHYPLRDDDFCSDLLFSAAPTATATATVSQVTAARPPVSSTNESRPPVRNFMNFSRLRGDFNNGRGGESGPLLSKAVVRESTQVSPSATPSAAASESGLTRRTDGTDSSAVAGGGAYNRKGKAVAMTAPAIEITGTSSSVVSKSEIEPEKTNVDDRKRKEREATTTDETESRSEETKQARVSTTSTKRSRAAEVHNLSERKRRDRINERMKALQELIPRCNKSDKASMLDEAIEYMKSLQLQIQMMSMGCGMMPMMYPGMQQYMPHMAMGMGMNQPIPPPSFMPFPNMLAAQRPLPTQTHMAGSGPQYPVHASDPSRVFVPNQQYDPTSGQPQYPAGYTDPYQQFRGLHPTQPPQFQNQATSYPSSSRVSSSKESEDHGNHTTG
B4: GST-PIF3 (natural protein)
chain: MPLFELFRLTKAKLESAQDRNPSPPVDEVVELVWENGQISTQSQSSRSRNIPPPQANSSRAREIGNGSKTTMVDEIPMSVPSLMTGLSQDDDFVPWLNHHPSLDGYCSDFLRDVSSPVTVNEQESDMAVNQTAFPLFQRRKDGNESAPAASSSQYNGFQSHSLYGSDRARDLPSQQTNPDRFTQTQEPLITSNKPSLVNFSHFLRPATFAKTTNNNLHDTKEKSPQSPPNVFQTRVLGAKDSEDKVLNESVASATPKDNQKACLISEDSCRKDQESEKAVVCSSVGSGNSLDGPSESPSLSLKRKHSNIQDIDCHSEDVEEESGDGRKEAGPSRTGLGSKRSRSAEVHNLSERRRRDRINEKMRALQELIPNCNKVDKASMLDEAIEYLKSLQLQVQIMSMASGYYLPPAVMFPPGMGHYPAAAAAMAMGMGMPYAMGLPDLSRGGSSVNHGPQFQVSGMQQQPVAMGIPRVSGGGIFAGSSTIGNGSTRDLSGSKDQTTTNNNSNLKPIKRKQGSSDQFCGSS

Key:
Assay in all cases: pull-down
[1] = molecular target: B2
[2] = molecular target: B1
[3] = molecular target: T1, MBP-fused phyA^OPM (Arabidopsis thaliana, UniProt P14712 608-1122)
T1 sequence: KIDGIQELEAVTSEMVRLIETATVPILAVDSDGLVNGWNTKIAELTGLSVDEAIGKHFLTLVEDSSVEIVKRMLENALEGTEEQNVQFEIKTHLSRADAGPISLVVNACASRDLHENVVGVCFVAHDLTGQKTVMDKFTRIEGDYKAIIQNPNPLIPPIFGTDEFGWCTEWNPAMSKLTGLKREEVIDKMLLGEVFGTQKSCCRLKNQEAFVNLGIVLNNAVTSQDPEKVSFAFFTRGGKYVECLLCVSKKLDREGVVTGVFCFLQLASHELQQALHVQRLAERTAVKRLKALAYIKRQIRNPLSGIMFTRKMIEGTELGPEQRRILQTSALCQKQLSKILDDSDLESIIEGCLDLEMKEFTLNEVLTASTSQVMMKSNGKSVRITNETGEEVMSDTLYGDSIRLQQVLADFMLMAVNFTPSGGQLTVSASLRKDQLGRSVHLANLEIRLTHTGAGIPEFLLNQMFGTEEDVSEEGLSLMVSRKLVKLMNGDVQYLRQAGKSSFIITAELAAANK

[4] = molecular target: T2, MBP-fused phyB^OPM (Arabidopsis thaliana, UniProt P14713 642-1172)
T2 sequence: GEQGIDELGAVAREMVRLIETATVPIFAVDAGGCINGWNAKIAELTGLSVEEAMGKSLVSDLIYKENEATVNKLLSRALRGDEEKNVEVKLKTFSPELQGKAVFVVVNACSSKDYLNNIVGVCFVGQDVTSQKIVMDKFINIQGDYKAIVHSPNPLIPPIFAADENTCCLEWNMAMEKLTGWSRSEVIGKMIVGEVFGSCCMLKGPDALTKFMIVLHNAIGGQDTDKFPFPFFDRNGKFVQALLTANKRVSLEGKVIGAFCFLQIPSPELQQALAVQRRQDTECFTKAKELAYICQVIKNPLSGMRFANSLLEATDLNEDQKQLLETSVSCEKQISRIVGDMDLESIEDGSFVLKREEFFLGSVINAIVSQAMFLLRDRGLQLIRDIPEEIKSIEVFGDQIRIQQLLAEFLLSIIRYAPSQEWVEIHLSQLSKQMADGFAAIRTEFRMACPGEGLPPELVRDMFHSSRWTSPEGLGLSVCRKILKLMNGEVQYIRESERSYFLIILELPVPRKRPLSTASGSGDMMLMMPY

[5] = molecular target: T3, SBP-fused full-length phyA (Arabidopsis thaliana, UniProt P14712 1-1122, chromophore-bound (phycocyanobilin, PCB))
T3 sequence: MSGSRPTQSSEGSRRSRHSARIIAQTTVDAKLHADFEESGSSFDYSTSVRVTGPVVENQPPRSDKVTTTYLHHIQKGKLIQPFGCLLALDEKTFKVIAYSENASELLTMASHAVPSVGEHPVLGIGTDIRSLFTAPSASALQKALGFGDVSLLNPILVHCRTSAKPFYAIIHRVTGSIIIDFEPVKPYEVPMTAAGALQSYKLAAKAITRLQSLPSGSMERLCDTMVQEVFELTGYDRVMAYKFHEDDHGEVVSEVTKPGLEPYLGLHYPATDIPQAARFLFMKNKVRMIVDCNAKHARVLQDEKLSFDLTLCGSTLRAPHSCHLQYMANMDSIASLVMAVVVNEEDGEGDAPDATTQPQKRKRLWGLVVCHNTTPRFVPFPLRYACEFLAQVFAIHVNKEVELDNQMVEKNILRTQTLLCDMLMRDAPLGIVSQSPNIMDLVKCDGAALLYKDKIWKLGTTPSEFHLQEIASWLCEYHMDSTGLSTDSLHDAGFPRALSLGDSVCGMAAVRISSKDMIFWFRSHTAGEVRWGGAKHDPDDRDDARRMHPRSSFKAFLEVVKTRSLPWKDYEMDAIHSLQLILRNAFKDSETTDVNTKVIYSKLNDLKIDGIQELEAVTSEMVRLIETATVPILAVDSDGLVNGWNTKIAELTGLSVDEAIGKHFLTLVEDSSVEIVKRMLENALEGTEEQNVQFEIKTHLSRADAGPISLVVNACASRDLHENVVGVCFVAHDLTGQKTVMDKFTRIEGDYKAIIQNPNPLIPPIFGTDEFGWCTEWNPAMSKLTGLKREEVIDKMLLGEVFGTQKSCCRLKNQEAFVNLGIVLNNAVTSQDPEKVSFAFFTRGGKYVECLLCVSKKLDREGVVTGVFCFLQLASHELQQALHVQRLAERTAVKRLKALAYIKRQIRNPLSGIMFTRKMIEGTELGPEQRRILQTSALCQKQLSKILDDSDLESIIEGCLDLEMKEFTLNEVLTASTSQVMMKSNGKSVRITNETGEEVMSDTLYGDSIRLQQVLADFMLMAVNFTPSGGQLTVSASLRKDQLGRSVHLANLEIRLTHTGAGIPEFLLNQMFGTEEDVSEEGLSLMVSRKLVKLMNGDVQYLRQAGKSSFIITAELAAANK

In the case of B1, the “fold strength against the phyB^OPM-APA interaction (m39 on m40)” value [1] is reported as about 2 fold.

B2: binds [2].

B3: binds [3]; binds [4].

B4: binds [5]; binds [2].
